Laboratory results reported in publication PMC12289001.

Molecular target: T1, purified HAstV-8 virus particles (strain Yuc-8) (human astrovirus serotype 8 (HAstV-8), strain Yuc-8) (UniProt Q9IFX1)
T1 sequence 1: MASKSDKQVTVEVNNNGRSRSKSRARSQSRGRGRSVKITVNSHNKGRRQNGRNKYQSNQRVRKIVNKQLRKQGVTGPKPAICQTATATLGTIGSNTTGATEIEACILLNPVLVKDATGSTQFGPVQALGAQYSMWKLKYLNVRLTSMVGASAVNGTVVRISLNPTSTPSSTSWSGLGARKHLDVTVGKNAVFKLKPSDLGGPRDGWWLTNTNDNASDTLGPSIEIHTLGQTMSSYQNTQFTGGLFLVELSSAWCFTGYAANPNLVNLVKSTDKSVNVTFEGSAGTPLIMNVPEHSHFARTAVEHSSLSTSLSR
T1 sequence 2: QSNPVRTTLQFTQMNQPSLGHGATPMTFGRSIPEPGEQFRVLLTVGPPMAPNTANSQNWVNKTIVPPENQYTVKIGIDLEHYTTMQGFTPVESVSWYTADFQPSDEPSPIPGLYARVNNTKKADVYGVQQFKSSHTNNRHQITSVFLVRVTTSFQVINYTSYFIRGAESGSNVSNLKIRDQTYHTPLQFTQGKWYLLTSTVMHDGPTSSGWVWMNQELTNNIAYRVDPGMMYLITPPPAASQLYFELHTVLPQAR

Chain of recombinant human FCGRT & B2M heterodimer protein (SinoBiological #CT009-H08H) (P55899 24-297): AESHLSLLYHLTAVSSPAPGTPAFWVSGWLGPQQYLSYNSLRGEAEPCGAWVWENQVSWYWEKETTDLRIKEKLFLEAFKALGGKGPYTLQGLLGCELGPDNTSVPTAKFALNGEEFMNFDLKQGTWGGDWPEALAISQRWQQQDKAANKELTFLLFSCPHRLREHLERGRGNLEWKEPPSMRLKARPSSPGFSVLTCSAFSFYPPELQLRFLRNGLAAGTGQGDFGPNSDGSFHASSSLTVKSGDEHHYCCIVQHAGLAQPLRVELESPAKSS
Chain of recombinant human FCGRT & B2M heterodimer protein (SinoBiological #CT009-H08H) (P61769 21-119): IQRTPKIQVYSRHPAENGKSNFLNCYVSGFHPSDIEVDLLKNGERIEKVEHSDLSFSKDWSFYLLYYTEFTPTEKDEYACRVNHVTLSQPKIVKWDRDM

Q: For “recombinant human FCGRT & B2M heterodimer protein (SinoBiological #CT009-H08H) (from UniProt P55899 24-297; P61769 21-119) (receptor)”, which FcRn concentration that lowers by 50% the infectivity of the WT chimeric HAstV-1/HAstV-8 virus in Caco-2 cells (neutralization assay with different concentrations of FcRn) is on record?
A: 100 ng/mL
